“Also recorded” adds a separate entry of the source.
Columns and labels:
[1] = Description: Six-week-old male ICR mice, from the Biolasco Taiwan, were divided into groups of three and dosed at 5 mg/kg intravenously. Blood samples were drawn from each animal at time points of 0.003, 0.083, 0.25, 0.5, 1, 2, 4, 6, 8, and 24 h and stored on ice (0–4 °C). With centrifugation (3000 rpm for 15 min at 4 °C in a Beckman Model Allegra 6R centrifuge), plasma was separated from the blood and stored in frozen conditions (−20 °C). […] The mice were sacrificed, and the blood samples of 0.5 mL each and tumor samples were collected at 0.5, 2, 6, 24, 72, and 168 h after administration. Each time point group included 4 mice. Mouse blood samples were collected in EDTA tubes and centrifuged at 13,000 rpm for 5 min at 4°C for plasma collection. Plasma and the harvested tumor samples were stored at −80°C until use. Fifty microliters of mouse plasma or the sample of tumor homogenated in ddH2O with dilution ratio of 1:3 (w/v) by MiniBeadbeater-16 (BioSpec Products Inc., OK, USA) was mixed with 100 μL of acetonitrile containing 250 ng/mL BPR0L187. The mixture was vortexed for 30 s and then centrifuged at 15000g for 20 min. The supernatant was transferred to a clean tube, and 15 μL of the supernatant was injected onto LC/MS/MS. Plasma samples were analyzed by liquid chromatography tandem mass spectrometry (LC/MS/MS). […]
[2] = tested on: MIA PaCa-2 human xenografts; assay: MIA PaCa-2 xenograft antitumor efficacy; settings: 1 mg/kg intravenously twice weekly for two weeks (Figure 4)
Description: (§1) Cancer cells, suspending in phenol red free medium/DPBS, were mixed with Matrigel (356237, BD Biosciences, San Jose CA, USA) in a 1:1 ratio. Human pancreatic cancer MIA PaCa-2 (1 × 10^6 cells) or triple-negative breast cancer HCC1806 (1 × 10^6cells) cells were subcutaneously inoculated to left flanks of male nude mice 6 weeks old (Biolasco, Taiwan) or female nude mice 6 weeks old by using a 1 mL syringe (needle 24G × 1 in., 0.55 × 25 mm; TERUMO). Tumor dimensions were measured twice a week with an electronic caliper (FOW54-200-777, PRO-MAX, Newton, Massachusetts, USA), and the volume of the subcutaneously growing tumor in mm^3 was calculated by the following formula: volume = (length × width[2])/2. Conjugates were formulated 10% DMA/20% Cremophor EL/70% injectable solution of 5% dextrose (D5W) for treating MIA PaCa-2 and HCC1806 xenograft tumors. […] Body weight of the mice and tumor volume were measured twice weekly.

[3] = Single intravenous dose pharmacokinetic study
Description: Six-week-old male ICR mice, from the Biolasco Taiwan, were divided into groups of three and dosed at 5 mg/kg intravenously. Blood samples were drawn from each animal at time points of 0.003, 0.083, 0.25, 0.5, 1, 2, 4, 6, 8, and 24 h and stored on ice (0–4 °C). With centrifugation (3000 rpm for 15 min at 4 °C in a Beckman Model Allegra 6R centrifuge), plasma was separated from the blood and stored in frozen conditions (−20 °C). […] The mice were sacrificed, and the blood samples of 0.5 mL each and tumor samples were collected at 0.5, 2, 6, 24, 72, and 168 h after administration. Each time point group included 4 mice. Mouse blood samples were collected in EDTA tubes and centrifuged at 13,000 rpm for 5 min at 4°C for plasma collection. Plasma and the harvested tumor samples were stored at −80°C until use. Fifty microliters of mouse plasma or the sample of tumor homogenated in ddH2O with dilution ratio of 1:3 (w/v) by MiniBeadbeater-16 (BioSpec Products Inc., OK, USA) was mixed with 100 μL of acetonitrile containing 250 ng/mL BPR0L187. The mixture was vortexed for 30 s and then centrifuged at 15000g for 20 min. The supernatant was transferred to a clean tube, and 15 μL of the supernatant was injected onto LC/MS/MS. Plasma samples were analyzed by liquid chromatography tandem mass spectrometry (LC/MS/MS). The chromatographic system Agilent 1200 series LC system and an Agilent ZORBAX Eclipse XDB-C8 column (5 μm, 3.0 × 150 mm) interfaced to an MDS Sciex API4000 tandem mass spectrometer equipped with an ESI in the positive scanning mode at 600 °C was used. Data acquisition was collected via multiple reactions monitoring (MRM). A gradient system was employed for the separation of analyte and IS. Mobile phase A was 10 mM ammonium acetate aqueous solution containing 0.1% formic acid. Mobile phase B was acetonitrile. The gradient profile was as follows: 0.0–1.1 min, 50% B; 1.2–3.7 min, 55%B–90%B; 3.8–5.0 min, 90%B–50%B. The flow rate was 1.5 mL/min. The autosampler was programmed to inject 15 μL of the sample every 5 min.

[4] = tested on: immunogenic gene expression in the TME; settings: treated HCC tumor tissue vs vehicle
Description: (§2) In addition, a previously reported oncogene-induced, sorafenib-resistant HCC mouse model[50] was used in the current study to examine the antitumor activities of synthesized compounds. Male C57BL/6j mice 4–5 weeks old were purchased from the National Laboratory Animal Center (Taipei, Taiwan) and kept in the laboratory animal center (LAC) of NHRI. The mice received 2 μg of pCMV(CAT)T7-SB100 (Addgene #34879), 10 μg of pT/Caggs-NRASV12 (Addgene #20205), and 10 μg of pKT2/CLP-AKT-LUC plasmids through hydrodynamic injection and were monitored for tumor growth weekly using IVIS until the development of HCC in the liver. The animal study was reviewed and approved by the NHRI IACUC (Institutional Animal Care and Use Committee). HCC-bearing mice with the total flux from IVIS imaging above 1 × 10^9 photons/s were used for treatment of conjugates. […] Repetitive IVIS imaging was performed to track tumor progression, and tumor tissues of the treated HCC-bearing mice were collected at day 3, day 7, and day 14 post conjugate administrations for histological examination and RNA extraction. The tumor tissues of vehicle-treated HCC-bearing mice were collected at day 14 post treatment to serve as control samples.
The concentration (absorbance at 260 nm) and purity (A260/280 and A260/230 ratios) of the extracted RNA were measured by spectrophotometry, and the integrity of the RNA was further determined by a 2100 Bioanalyzer system (Agilent Technologies). The RNA, hybridized with barcoded probes (NanoString Technologies) provided in the nCounter Mouse PanCancer Immune Profiling panel kit, was then used for measurement of the mRNA expression of 770 genes related to immune responses. Nanostring nSolver 4.0 and nCounter advanced analysis 2.0 software (NanoString Technologies) were used for data processing, immune cell profiling, and pathway scoring according to developer’s instructions.

[5] = rats, 1 mg/kg i.v. once a week for 4 weeks
Description: The animal body weights were measured daily during the study period. At the end of the study on day 29, all the animals were euthanized with 100% CO2 and sacrificed for organ harvest followed by organ weight measurements and for blood sample collection followed by hematology and serum chemistry assays. Hematology and serum chemistry parameters were determined using a HEMAVET 950 automated analyzer (Drew Scientific, Santa Clara, CA, USA) and a FUJI DRI-CHEM NX500 automated analyzer (FUJIFILM, Tokyo, Japan), respectively.

[6] = tested on: sorafenib-resistant hepatocellular carcinoma (HCC) model
Description: as §2

[7] = tested on: HCC tumor microenvironment; settings: HCC model
Description: as §2

[8] = tested on: HCC1806 triple-negative breast cancer (TNBC) xenografts
Description: as §1

[9] = Plasma incubation and tumor homogenate cleavage of conjugate; assay type: in vitro ADME
Description: Figure 3 In vivo targeting ability, plasma stability, and in vivo biodistribution of modified zinc dipicolylamine conjugates in subcutaneous HCC1806 tumor xenografts. […] (B) In vivo detection of PS-expression in the HCC1806 tumor xenograft model. Representative IVIS images of new Zn11-794 fluorescence probe in mice.

[10] = tested on: ovarian, skin, and oral cancer cell lines; settings: Figure S2

CCCCCC(=O)Nc1cccc(CN(Cc2cc(CN(Cc3ccccn3)Cc3cccc(NC(=O)CCCCC)n3)cc(OCCCCN(Cc3ccc(-c4ccccc4)cc3)C(=O)COCCOCCOCC(=O)NCc3ccc(CNC(=O)CCSSCCC(=O)N(C)[C@@H](C)C(=O)O[C@H]4CC(=O)N(C)c5cc(cc(OC)c5Cl)C/C(C)=C/C=C\[C@@H](OC)[C@@]5(O)C[C@H](OC(=O)N5)[C@@H](C)[C@@H]5O[C@@]45C)cc3)c2)Cc2ccccn2)n1.O=[N+]([O-])[O-].O=[N+]([O-])[O-].O=[N+]([O-])[O-].O=[N+]([O-])[O-].[Zn+2].[Zn+2] [Compound 40a]
plasma stability in vivo, detection of released 14 ([1]; plasma of HCC1806 tumor-bearing mice): negligible detection of 14 | 14 released from 40a in the tumor mass ([1]; tumor tissue of HCC1806 tumor-bearing mice): significant time-dependent increase | antitumor efficacy [2]: potent antitumor efficacies; also recorded: potent and lasting anti-MIA PaCa-2 activity | body weight change during treatment [2]: without apparent body weight loss | decrease in volume distribution (Vss) ([3]; 40a compared with conjugates 30 and 36): 5 fold | AUC(0-24 hr) Conjugate ([3]; intact conjugate, male ICR mice, 5 mg/kg intravenous): 105,599 ng/mL*hr | CL ([3]; male ICR mice, 5 mg/kg intravenous, n = 3): 0.9 mL/min/kg | Vss ([3]; male ICR mice, 5 mg/kg intravenous, n = 3, 5 mg/kg): 0.1 L/kg | AUC(0-24 hr) Drug ([3]; released payload 14, male ICR mice, 5 mg/kg intravenous of conjugate): 305 ng·h/mL | gene expression of CCL2 [4]: significantly elevated | gene expression of CCL5 and CXCL10 [4]: Significant increases | gene expression of STAT1 [4]: significantly elevated | T-cell, macrophage, NK cell, chemokine and receptor functions and inflammation score (gene set analysis) ([4]; n = 3): striking elevations | BUN and creatinine levels [5]: normal | GOT and GPT [5]: slightly increased (not significant) | hematologic (leukocyte, neutrophil, lymphocyte, and platelet) parameters [5]: normal | organ weights (liver and kidneys) [5]: did not alter organ weights | tumor burden by bioluminescence ([6]; 1 mg/kg i.v. twice weekly for two weeks): significant decrease | activity against HCC tumor growth ([6]; 1 mg/kg injected twice weekly for two weeks): potent activity | total liver weight ([6]; 14 days after treatment): marked reduction | Ki67 expression in treated tumors ([7]; 1 mg/kg i.v.): reduction | infiltration of Gr-1+ monocytes and polymorphonuclear granulocytes and F4/80+ macrophages ([7]; IHC staining): increased infiltration | cytotoxic CD8+ T-cell infiltration ([7]; days 3, 7, and 14): significant increase | antitumor efficacy against HCC1806 TNBC xenografts ([8]; intravenous twice per week (Figure 4B)): potent antitumor efficacy | efficacy on larger HCC1806 tumors ([8]; larger (400–800 mm^3) tumors, 2.5 mg/kg once per week for three weeks): potent efficacies and shrinkage | stability in plasma incubation ([9]; plasma): stable | cleavage with tumor homogenates ([9]; tumor homogenate): readily cleaved | potency against ovarian, skin, and oral cancer cell lines [10]: highly potent

From article PMC9574934, “Targeting the Phosphatidylserine-Immune Checkpoint with a Small-Molecule Maytansinoid Conjugate” (Journal of Medicinal Chemistry, 2022)
